In paper PMC7133447:
pKd: −log10 of the molar value.

Assays:
[1] = biological target: transferrin receptor (TfR) on bEnd.3 cells (mouse) (UniProt Q62351); assay: flow cytometry (bEnd.3 cells); settings: Live-cell flow cytometry, 5e5 cells, 0-400 nM aptamer, PBS with 10% FCS, 0.1 mg/mL tRNA, 0.1 mg/mL BSA, 60 min, 37 C, aptamer folded in PBS with 5 mM MgCl2
[2] = biological target: T1, epithelial cell adhesion molecule (EpCAM) on MDA-MB-231 cells (human) (UniProt P16422); assay: flow cytometry (MDA-MB-231 cells); settings: Live-cell flow cytometry, 5e5 cells, 0-400 nM aptamer, PBS with 10% FCS, 0.1 mg/mL tRNA, 0.1 mg/mL BSA, 60 min, 37 C, aptamer folded in PBS with 5 mM MgCl2
T1 sequence: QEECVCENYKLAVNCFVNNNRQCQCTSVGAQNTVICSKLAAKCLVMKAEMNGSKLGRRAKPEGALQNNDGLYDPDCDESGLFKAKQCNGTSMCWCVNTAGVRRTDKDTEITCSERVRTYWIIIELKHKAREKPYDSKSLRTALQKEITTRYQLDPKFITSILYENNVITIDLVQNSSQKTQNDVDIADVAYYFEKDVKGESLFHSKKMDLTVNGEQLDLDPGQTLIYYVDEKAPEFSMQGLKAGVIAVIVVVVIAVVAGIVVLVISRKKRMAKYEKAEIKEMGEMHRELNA

[3] = biological target: transferrin receptor (TfR) / EpCAM on 4T1 cells (mouse) (UniProt Q62351); assay: flow cytometry (4T1 cells); settings: Live-cell flow cytometry, 5e5 cells, 0-400 nM aptamer, PBS with 10% FCS, 0.1 mg/mL tRNA, 0.1 mg/mL BSA, 60 min, 37 C; aptamer folded in PBS with 5 mM MgCl2
[4] = doxorubicin intercalated (non-covalent, about 2-3 per aptamer)

Chain of transferrin receptor (TfR) on bEnd.3 cells (mouse) (Q62351 whole entry): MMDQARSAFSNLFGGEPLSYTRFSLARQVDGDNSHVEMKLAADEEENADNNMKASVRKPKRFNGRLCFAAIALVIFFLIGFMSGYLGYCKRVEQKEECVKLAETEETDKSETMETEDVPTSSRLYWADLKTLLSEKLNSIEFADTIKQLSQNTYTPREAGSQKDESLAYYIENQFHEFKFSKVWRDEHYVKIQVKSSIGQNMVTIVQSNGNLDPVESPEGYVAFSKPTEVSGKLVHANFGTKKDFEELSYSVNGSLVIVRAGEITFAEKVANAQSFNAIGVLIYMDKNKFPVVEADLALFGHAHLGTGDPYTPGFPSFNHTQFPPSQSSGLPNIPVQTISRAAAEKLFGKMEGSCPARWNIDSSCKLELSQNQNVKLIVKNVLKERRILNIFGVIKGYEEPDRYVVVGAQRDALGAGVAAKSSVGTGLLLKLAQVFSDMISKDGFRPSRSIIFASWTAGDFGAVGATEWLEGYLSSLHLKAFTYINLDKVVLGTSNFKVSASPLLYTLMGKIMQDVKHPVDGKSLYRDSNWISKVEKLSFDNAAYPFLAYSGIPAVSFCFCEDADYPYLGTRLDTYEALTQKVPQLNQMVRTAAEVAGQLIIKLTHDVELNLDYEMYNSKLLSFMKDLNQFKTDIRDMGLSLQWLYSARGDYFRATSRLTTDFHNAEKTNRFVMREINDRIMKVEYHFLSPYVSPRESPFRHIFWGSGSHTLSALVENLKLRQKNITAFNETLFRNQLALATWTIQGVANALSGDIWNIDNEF
Chain of transferrin receptor (TfR) / EpCAM on 4T1 cells (mouse) (Q62351 whole entry): as above

| Sequence | pKd [1, 4] | pKd [2, 4] | pKd ([1]; cited from earlier work) | pKd [3] | pKd ([2]; cited from earlier work) |
| --- | --- | --- | --- | --- | --- |
| GCGCGGTACCGCGCTAACGGAGGTTGCGTCCGT [TEPP-DOX] | 6.92 | 6.27 | – | – | – |
| GCGCGGTACCGCGCTAACGGAGGTTGCGTCCGT [TEPP] | – | – | 6.96 | 7.56 | 7.07 |
| GCGCGTGCACGCGCTAACGGATTCCTTTTCCGT [TENN] | – | – | < 5.00 | – | < 5.00 |
| GCGCGTGCACGCGCTAACGGATTCCTTTTCCGT [TENN-DOX] | 6.06 | < 5.00 | – | – | – |
